Assay results taken from patent publication US20230134571A1 (INTERNATIONAL AIDS VACCINE INITIATIVE, published 2023).

Assays:
Assay in all cases: cell-based or functional assay
HIV Env, isolate 2969249 = HIV Env, isolate 2969249 (HIV)
[1] = target: HIV Env, isolate 20258279_V2 (HIV)
[2] = target: HIV Env, isolate 2768732_C5_16 (HIV)
[3] = target: HIV Env, isolate 20104663_E11_D2 (HIV)
[4] = target: HIV Env, isolate 21502011_F12_E2 (HIV)
[5] = target: HIV Env, isolate 19314479_A2_5 (HIV)
[6] = target: HIV Env, isolate 556_F2_3_25 (HIV)
[7] = target: HIV Env, isolate CAP69.1.12_TA7.1 (HIV)
[8] = target: HIV Env, isolate CAP225.1.06_A2_18 (HIV)
[9] = target: HIV Env, isolate TRP290.2.00_23_6 (HIV)
[10] = target: HIV Env, isolate So405_T24_5 (HIV)
[11] = target: HIV Env, isolate CT072_56_7 (HIV)
[12] = target: HIV Env, isolate Ko870_C2_10 (HIV)
[13] = target: HIV Env, isolate 2865_A11.12 (HIV)
[14] = target: HIV Env, isolate CAP308.2.00_E11.35 (HIV)
[15] = target: HIV Env, isolate 20358510.01 (HIV)
[16] = target: HIV Env, isolate 1170887.08 (HIV)
[17] = target: HIV Env, isolate B005018-8_F6.3 (HIV)
[18] = target: HIV Env, isolate CT810_G4-7 (HIV)
[19] = target: HIV Env, isolate CT184_D3.15 (HIV)
[20] = target: HIV Env, isolate Me178_G6.16 (HIV)
[21] = target: HIV Env, isolate CAP291.2.00_H2.15 (HIV)
[22] = target: HIV Env, isolate SO032_A2.8-1 (HIV)
[23] = target: HIV Env, isolate CH064.env (HIV)
[24] = target: HIV Env, isolate Ce1172_H1 (HIV)
[25] = target: HIV Env, isolate ZM135M.PL10a (HIV)
[26] = target: HIV Env, isolate ZM197M.PB7 (HIV)
[27] = target: HIV Env, isolate ZM214M.PL15 (HIV)
[28] = target: HIV Env, isolate ZM233M.PB6 (HIV)
[29] = target: HIV Env, isolate CAP244.2.00.D3 (HIV)
[30] = target: HIV Env, isolate ZM106F.PB9 (HIV)
[31] = target: HIV Env, isolate 0041.v3.c18 (HIV)
[32] = target: HIV Env, isolate 3426.v5.c17 (HIV)
[33] = target: HIV Env, isolate Ce703010131_1E2 (HIV)
[34] = target: HIV Env, isolate Ce0665_F2 (HIV)
[35] = target: HIV Env, isolate 235080_3G7env2(Rev-) (HIV)

B1: ePGDM9 (antibody, V domains shown)
VH: QAQLVQSGPEVRKPGTSVKVSCKNPGNTLTTYDLHWVRQVPGQGLQWMGWISHEGDKKVIVERFKAKVTIDWDRSTNTAYLQLSGLTSEDTAVYYCAKGSKHRLRDYALYDEDGALNWAVDVDYLANLEFWGQGTAVTVSS
VL: DIVLTQSPLSLSVTPGESASISCKSSQSLIHGDRNNYLAWYVQKPGRSPQLLIDLASERASGVPDRFSGSGSRKDFTLKISRVETEDVGTYYCMQGRESPWTFGQGTKVDIK
Q: Which results are given for B1?
A: IC50 (HIV Env, isolate 2969249): > 50 µg/mL; IC80 (HIV Env, isolate 2969249): > 50 µg/mL; IC50 [1]: > 50 µg/mL; IC80 [1]: > 50 µg/mL; IC50 [2]: 0.016 µg/mL; IC80 [2]: 0.114 µg/mL; IC50 [3]: < 0.0006 µg/mL; IC80 [3]: 0.001 µg/mL; IC50 [4]: > 50 µg/mL; IC80 [4]: > 50 µg/mL; IC50 [5]: < 0.0006 µg/mL; IC80 [5]: 0.001 µg/mL; IC50 [6]: > 50 µg/mL; IC80 [6]: > 50 µg/mL; IC50 [7]: 0.01 µg/mL; IC80 [7]: 0.039 µg/mL; IC50 [8]: 0.025 µg/mL; IC80 [8]: 0.167 µg/mL; IC50 [9]: 0.012 µg/mL; IC80 [9]: 0.06 µg/mL; IC50 [10]: 14.3 µg/mL; IC80 [10]: > 50 µg/mL; IC50 [11]: 0.002 µg/mL; IC80 [11]: 1.23 µg/mL; IC50 [12]: 0.001 µg/mL; IC80 [12]: 0.021 µg/mL; IC50 [13]: 0.071 µg/mL; IC80 [13]: 0.258 µg/mL; IC50 [14]: 0.001 µg/mL; IC80 [14]: 0.004 µg/mL; IC50 [15]: 0.004 µg/mL; IC80 [15]: 0.017 µg/mL; IC50 [16]: 0.008 µg/mL; IC80 [16]: 0.056 µg/mL; IC50 [17]: < 0.0006 µg/mL; IC80 [17]: 0.003 µg/mL; IC50 [18]: 0.087 µg/mL; IC80 [18]: 5.53 µg/mL; IC50 [19]: < 0.0006 µg/mL; IC80 [19]: 0.002 µg/mL; IC50 [20]: 0.006 µg/mL; IC80 [20]: 0.031 µg/mL; IC50 [21]: 0.342 µg/mL; IC80 [21]: 1.1 µg/mL; IC50 [22]: > 50 µg/mL; IC80 [22]: > 50 µg/mL; IC50 [23]: 0.333 µg/mL; IC80 [23]: 1.62 µg/mL; IC50 [24]: 0.007 µg/mL; IC80 [24]: 0.02 µg/mL; IC50 [25]: > 50 µg/mL; IC80 [25]: > 50 µg/mL; IC50 [26]: 0.017 µg/mL; IC80 [26]: 0.05 µg/mL; IC50 [27]: > 50 µg/mL; IC80 [27]: > 50 µg/mL; IC50 [28]: < 0.0006 µg/mL; IC80 [28]: 0.001 µg/mL; IC50 [29]: 2.87 µg/mL; IC80 [29]: 19.9 µg/mL; IC50 [30]: 0.007 µg/mL; IC80 [30]: 0.024 µg/mL; IC50 [31]: < 0.0006 µg/mL; IC80 [31]: 0.001 µg/mL; IC50 [32]: < 0.0006 µg/mL; IC80 [32]: 0.002 µg/mL; IC50 [33]: < 0.0006 µg/mL; IC80 [33]: 0.004 µg/mL; IC50 [34]: 22.4 µg/mL; IC80 [34]: > 50 µg/mL; IC50 [35]: 0.002 µg/mL; IC80 [35]: 0.005 µg/mL
